Earlier results in publication PMC6292179.

Molecular target: IL-18BP (Homo sapiens) (UniProt O95998)
Sequence (O95998 31-194): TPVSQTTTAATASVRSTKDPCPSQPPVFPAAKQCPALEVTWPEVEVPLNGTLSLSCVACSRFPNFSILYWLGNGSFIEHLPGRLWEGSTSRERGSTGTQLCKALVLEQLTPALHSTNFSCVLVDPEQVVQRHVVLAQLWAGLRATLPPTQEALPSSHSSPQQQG

IL-18, sequence (Q14116 37-193): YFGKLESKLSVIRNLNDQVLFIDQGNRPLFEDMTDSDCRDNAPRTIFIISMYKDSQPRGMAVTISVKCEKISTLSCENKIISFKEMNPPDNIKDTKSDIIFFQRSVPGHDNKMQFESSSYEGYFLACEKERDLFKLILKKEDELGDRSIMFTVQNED

**Q.** For IL-18 (from UniProt Q14116), which Kd is on record?
**A.** The Kd was 0.4 nM.
